Measured values published in PMC4169324 (The FEBS journal, 2014).

B1: BcRsaM protein (product of bcam1869) from B. cenocepacia J2315, native (natural protein)
chain: SNAMTSPLLHPVPGPSPDGYVRLSEGALAALVLDHVASGLDPSLLAELRDNAIDARLAGYTEWHRTAGAGVAYVTVGWDWYLERATGTFVIAGGDVRSNVMAIDAKGADIGMLRTAAALAARLAALDWPAAVASALLGHNDAYHAGPTLQ
B2: SeMet-labeled BcRsaM protein from B. cenocepacia J2315 (natural protein)
chain: B1 chain
modifications: selenomethionine (SeMet-labeled; 70 mg/L SeMet in the culture for crystals X4)

Tests used:
SEC = biological target: the molecule itself; assay: SEC
crystal structure = biological target: the molecule itself; assay: crystal structure

| Protein | stoichiometry N (SEC) | binding result (crystal structure) |
| --- | --- | --- |
| B1 | 2 | – |
| B2 | – | binds |
